{"source": "the nanobody polyreactivity screen of Harvey et al. (2022)"}
{"assay": "yeast display, Sf9 membrane polyspecificity reagent, FACS + sequencing; frameworks hold sequencing errors", "summary_of_the_method": "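A synthetic nanobody library was expressed on Saccharomyces cerevisiae BJ5465 by galactose induction for 36–48 hours. The library was stained for 1 hour at 4 °C with 10% biotinylated, detergent-solubilized Sf9 membrane reagent and enriched with streptavidin microbeads before FACS. Low and high (top ~1%) gates were set on anti-HA fluorescence for expression and streptavidin fluorescence for reagent binding, and each polyreactivity label reflects the gate of origin.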"}
{"sequence": "QVQLVESGGGLVQAGGSLRLICADSGRILGINAMGWYRQAPGKERELVAAISSGGSTYYADSVKGRFTISRDNAKNTVYLQMNSLKPEDTAVYYCNVGSYAGWSDHPRYGYWGQGTQVTVSS", "polyreactivity (PSR sort gate)": "high polyreactivity"}
{"sequence": "QVQLVESGGGLVQAGGSLRLSCAASGSTFNHYAMGWYRQAPGKDRELVAAITKSGGSTYADSVKGRFTISRDNAKNSVYLQMNSLKPEDTAVYFCAAGRRKYGTKGRGDYWGQGTQVTVSS", "polyreactivity (PSR sort gate)": "low polyreactivity"}
{"sequence": "QVQLVESGGGLVQAGGSLRLSCAASGLTLYYYAMGWYRQAPGKERELVAAISYSGGSTYYADSVKGRFTISRDNAKNTVYLQMNSLKPEDTAVYYCAADGDSDIRDDYWGQGTQVTVSS", "polyreactivity (PSR sort gate)": "low polyreactivity"}
{"sequence": "QVQLVESGGGLVQAGGSLRLSCAASGSTFVRYAMGWYRQAPGKERELVAAIRGGGGTYYADSVKGRFTISRDNAKNTVYLQMNSLKPVDTAVYYCAADTYYYYWFAGYTEYDYWGQGTQVTVSS", "polyreactivity (PSR sort gate)": "low polyreactivity"}
{"sequence": "QVQLVESGGGLVQAGGSLRLSCAASGSIFPLYAMGWYRQAPGKERELVADITVSGGSTYYADSVKGRFTISRDNAKNTVYLQMNSLKPEDTAVYYCAKDNGPWFAYDYWGQGTQVTVSS", "polyreactivity (PSR sort gate)": "low polyreactivity"}
{"sequence": "QVQLVESAGGLVQAGGSLSLSCAASGSMFIYNAMGWYRQAPGKERELVATISSGGSTTYADSVKGRFTISRDNAKNTVYLQMNSLKPEDTAVYYCATDDPPDQYFYLGYYYWGANDYWGQGTQVTVSS", "polyreactivity (PSR sort gate)": "low polyreactivity"}
{"sequence": "QVQLVESGGGLVQAGGSLRLSCAASGFIFSSYAMGWYRPAPGKERELVAAISKSGDRTSYADSVKGRFTISRDNAKNTVYLQMNSLKPEDTAVYYCNAKYWGYSHHVIWYDYWGQGTQVTVSS", "polyreactivity (PSR sort gate)": "high polyreactivity"}
{"sequence": "QVQLVESGGGLVQAGGSLRLSCAASGSIYTPNVMGWYRQAPGKERELVAAISQSGGSTFYADSVKGRFTISRDNAKNTVYLQMNSLKPEDTAVYYCATEYYGPVYDLDYDYWGQGTQVTVSS", "polyreactivity (PSR sort gate)": "low polyreactivity"}
{"sequence": "QVQLVESGGGLVQAGGSLRLSCAASGRTFRAYAMGWYRQAPGKERELVAAITASGTSTYYADSVKGRFTISRDNAKNTVYLQMNSLKPEDTAVYYCARGSWRHFRLYGFDYWGQGTQVTVSS", "polyreactivity (PSR sort gate)": "low polyreactivity"}
{"sequence": "QVQLVESGGGLVQAGGSLRLSCAASGRIFRHKAMGWYRQAPGKETELVAAITSRGGTYYADSVKGRFTISRDNAKNTVYLQMNSLKPEDTAFYFCNADQALYSSGNKYDYWGQGTQVTVSS", "polyreactivity (PSR sort gate)": "low polyreactivity"}
{"sequence": "QVQLVESGGGLVQAGGSLRLSCAASGRIFLFYAMGWYRQGPGKERALVAAINWSGTRTYYADSVKGRFTISRDNAKNSVYLHMNSLKPEDTAVYDCNVDTSVYDFSEYDYWGQGTQVTVSS", "polyreactivity (PSR sort gate)": "high polyreactivity"}
{"sequence": "QVQLVESGGGLVQAGGILRLSCAASGFIFVDYSMGWYREAPAKESQLVAAISGRDGSTYYADSVKGRFTISRDNAKNTVYLQMNSLKPEDTAVYYCAADRIHSGTLYDYDYWGQGTQVTESS", "polyreactivity (PSR sort gate)": "low polyreactivity"}
{"sequence": "QVQLVESGGGLVQAGGSLRLSCAASGFIFRYYAMGWYRQAPGKERELVAAIRRGGSTSYADSVKGRFTISRDNAKNTVYLQMNSLKPEDTAVYYCNALGNFGMDYWGQGTQVTVSS", "polyreactivity (PSR sort gate)": "high polyreactivity"}
{"sequence": "QVQLVESGGALVQAGGSLRLSCAASGSTYDSYSMGWYRKAPGKERELVAAITRRGTRTYYADSVKGRFTISRDNAKNTVYLQMNSLKREDTAVYYCAADRGYRLQSYGYWGQGTQVTVSS", "polyreactivity (PSR sort gate)": "high polyreactivity"}
{"sequence": "QVQLVESGGGLVQAGGSLRLSCAASGITFLYYAMGWYRQAPGKERELVAAISGGGASTYYADSVKGRFTISRDNAKNTVYLQKNSLKPEDTAVYYCAAGYRDFFRARFGYWGQGTQVTVSS", "polyreactivity (PSR sort gate)": "high polyreactivity"}
{"sequence": "QVQLVESGGGLVQAGGSLRLSCAASGRIFSSYAMGWYRQAPGKERELVASIDWSDGSTYYADSVKGRFTIARDNAKNTVYLQMTSLKPEDTAVYYCAADFVPYLIYGYWGQGTQVTVTS", "polyreactivity (PSR sort gate)": "low polyreactivity"}
{"sequence": "QVQLVESGGGLVQAGGSLRLSCAASGSIFYKYGMGWYRQAPGKVRVLVAAIRASGDSTYYADSVKGRFTISRDNAKNTVYLQMNSQKPEDTAVYYCAARPNQSYYGLYYYWGQGTQVTVSS", "polyreactivity (PSR sort gate)": "low polyreactivity"}
{"sequence": "QVQLVESGGGLVQAGGSLRLSCAASGFILDYNAMGWYRQAPGKERELVATITGRGDRTYYADSVKGRVTISRDNAKNTVYLQMNSLKPEDTAGYYCAAGFDGSRHPGFDSWGQGTQVTVSS", "polyreactivity (PSR sort gate)": "low polyreactivity"}
{"sequence": "QVQLVESGGGLVQAGGSLRLSCAASVRIFTRYAMGWYRPAPGKERELVAGISYRGGGTYYADSVKGRFTISRDNAKNTVYLQMNSLKPEDTAVYYCATRRYPYSLLYKYWGQGTQVTVSS", "polyreactivity (PSR sort gate)": "high polyreactivity"}
{"sequence": "QVQLVESGGGLVQAGGSLRLSCAASGSTFANNAMGWYRQAPGKERELVASITTDGSTNYADSVKGRFTIARDNAKNTVYLQMNSLKPEDTAVYYGAADYHTPSSFAPIELYDYWGQGTQVTVSS", "polyreactivity (PSR sort gate)": "low polyreactivity"}
{"sequence": "QVQLVESGGCLVQAGGSLRLSCAASGLIFYTYAMGWYRQAPGKERELVASISSGGDSTYYADSVKGRFTISRDNAKNTVYLQMNSLKPEDTAVYYCNADYYYSYPYTYYYWGQGTQVTVSS", "polyreactivity (PSR sort gate)": "low polyreactivity"}
{"sequence": "QVQLVESVGGLVQAGGSLRLSCAASGSIFSYYAMGWYRQAPGKERELVAAITISGSSTYYADSVKGRFTISRDNAKNTVYLQMNSLKPEDTAVYYCNARTIRNWSGQHIYDYWGQGTQVTVSS", "polyreactivity (PSR sort gate)": "high polyreactivity"}
{"sequence": "QVQLVESVGGLVQAGGSLRLSCAASGGIFGVYAMGWYRQAPGKERELVAAISNSDTSTSYADSVMGRFTISRDIAKNTVYLQMNSVYPEDTAVYYCNADSPSLSGDYWGQGTQVTVSS", "polyreactivity (PSR sort gate)": "low polyreactivity"}
{"sequence": "QVQLVESGGGFVQAGGSLRLSCAASGSTFKTYTLGWYRQAPGKDRELVAGITSGGSTSYADSVKGRFTISRDNAKNTVYLQMNSLKPEATAVYYCNADAYLVIYFYTVRDYGYDYWGQGTQVTVSS", "polyreactivity (PSR sort gate)": "low polyreactivity"}
{"sequence": "QVQLVESGGGLVQAGGSLRLSCAASGFIFVDYDMGWYRQAPGKERELVAAITDSGTSTYYADSVKGRFTISRDNAKNTVYLQMNSLKPEDTAVYYCNTDVSPSFDYWGQGTQVTVSS", "polyreactivity (PSR sort gate)": "low polyreactivity"}
{"sequence": "QVQLVESGGGLVQAGGSLRLSCAASGITFTRYAMGWYRQAPGKEREFVAAIRRSGGNTYYADSVKGRFTISRDNAKNNVYLQRNSLKPEESAVYYCPASFRKTSPTRLVDYWGLGTQVTVSS", "polyreactivity (PSR sort gate)": "low polyreactivity"}
{"sequence": "QVQLVESGGGLVQAGGSLRLSCAASGSTFSRYAMGWYRQAPGKEMELVAAITGSGGNTYYADSVKGRFTISRDNAKNTVYLQMNSLKPEDTAVYYCAAEDYVGWYNFEYWGQGTQVTVSS", "polyreactivity (PSR sort gate)": "high polyreactivity"}
{"sequence": "QVQLVESGGGLVQAGGSLRLSCADSGRTFYRYAMVWYRQSPGKERELVAAITTSGGSTYYADSVKGRFTISRDNAKNTVYLQMNSLKPEDTAVYYCAATYYGYHIRDDYWGQGTQVTVSS", "polyreactivity (PSR sort gate)": "low polyreactivity"}
{"sequence": "QFQLVESGGGLVQAGGSLRLSCAASGFTFDFYAMGWYRQAPGKERELVAAISKNDGTTYYADSVKGRFTISRDNAKNTVYLQMNSLKQEDTAVYYCAAPNWRDYYSSGQGTQVTVSS", "polyreactivity (PSR sort gate)": "low polyreactivity"}
{"sequence": "QFQLVESGGGLVPAGGSLRLSCAASGRIFTGNAMGWSRQAPGKERELVASITYSDGSTYYADSVKGRFTISRDNATNTVYLKMNSLKPEDTAVYYCAADIRWGQGTQVTVSS", "polyreactivity (PSR sort gate)": "low polyreactivity"}
{"sequence": "QVQLVESGGGLVQAGGSLRLSCAASGSTFTYNTMGWYRQAPGKERELVAAISWGGGGTYYADSVKGRFTISRDNAKNSVYLQMNSLKRVDTAVYYCKADPWWDYGTFDYWGQGTQVTVSS", "polyreactivity (PSR sort gate)": "low polyreactivity"}
{"sequence": "QVQLVESGGGLVQVGGILLLSCAASGFTFYDYAMGWYRQAPGKERELVAAISRGGSTYYADSVKGRFTISRDNAKNTVNLQMNSLKPEDTAVYYCNARPTRIYHGMVYWGQGTQVTVSS", "polyreactivity (PSR sort gate)": "low polyreactivity"}
{"sequence": "QVQLVESGGGLVQAGGSLRLSCAASGRIFRNYAMGWYRQAPGKERELVAAISGNGGNTYYADSVKGRFTISRDNAKNTVYLQMNSLKPEDTAVYYCNAYHWLYSYRYSRTYDYWGQGTQVTVSS", "polyreactivity (PSR sort gate)": "high polyreactivity"}
{"sequence": "QVQLVESGGGLVQAGGSLRLSCAASGRIFPVYAMVSYRQAPGKERELVAAISKRDGSTSYADSVKGRFTISRDNAKNTVYLQMHSLKPEDTAVYYCNVLGYGSSYDYWGQGTQVTVSS", "polyreactivity (PSR sort gate)": "low polyreactivity"}
{"sequence": "QVQLVESVGGLVQAGGSLRLSCAASGRTFRAYAMGWYRQEPGKERELVAAIRWGGGRTYYADSVKGRFTISRDNAKYTVYLQMNSLKPEDTAVYYCAADRTYDYDYWGQGTLVTVSS", "polyreactivity (PSR sort gate)": "high polyreactivity"}
{"sequence": "QVQLVESGGGLVQAGGSLRLSCAASGFTFNRYAMGWYRQAPGKEREFVAAITRRGGNTYYADSVKGRFTISRDNAKNTVYLQMNSLKPEDSAVYYCNAVFGPSSYGAKEYDYWGQGTQVTVSS", "polyreactivity (PSR sort gate)": "high polyreactivity"}
{"sequence": "QVQLVESGGGLVQAGGSLRLSCAASGRTFKRNAMGWYRQAPGKERELVAAISSDGRTNYADSVKGRFTISRDNAKNTVYLQMNSLKPEDTAVYYCAASYVLSYGTYYYWGQGTQVTVSS", "polyreactivity (PSR sort gate)": "low polyreactivity"}
{"sequence": "QVQLVESGGGLVQAGGSLRLSCAASGRTFKYYAMGWYRQAPGKERELVAAISNGGRTNYADSVKGRFTISRDNAKNTVYLQMNSLKPEDTAVYYCAKRSFYFSDYDYWGQGTQVTVSS", "polyreactivity (PSR sort gate)": "high polyreactivity"}
{"sequence": "QDQLVDSGGGLVQAGGSLRLSCAASGRTFYTYAMGWYRQAPGKEREFVARISKRGGGTYYADSVKGRFTISRENAKNTVDLQMNSLIPEDTAVYYCNAGVPSAMDYWGQGTQLTVSS", "polyreactivity (PSR sort gate)": "high polyreactivity"}
{"sequence": "QVQLVESGGGLVQAGGSLRLSCAASGSIFSYYAMGWYRQAPGKERELVAAITVRGGSTYYADSVKGRFTISRDNAKNTVYFQMNSLKPEDTAVYYCAADWLDESFSYGPYYYWGQGTQVTVSS", "polyreactivity (PSR sort gate)": "low polyreactivity"}
{"sequence": "QVQLVESGGGLVQAGGSLRLSCAASGSIFYYNAMGWYRQAPGKERELVAGISYTGGSTYYADSVKGRFTISRDNAKNTVYLQMNSLKPEDTAVYYCAAVRQYYFRYKINTSGYQYYYWGQGTQVTVSS", "polyreactivity (PSR sort gate)": "high polyreactivity"}
{"sequence": "QVQLVESGGGLVQAGGSLRLSCAASGRIVKYAMGWYRQAPGKERELVAAISSSGGTTYYADSVKGRFTISRDNAKNTVYLQMISLKPEDTAVYYCAAPGTYTSRGSDYWGQGTQVTVSS", "polyreactivity (PSR sort gate)": "high polyreactivity"}
{"sequence": "QVQLVESGGGLVQAGGSLRLSCAASGSIFGVYAMGLYRQAPGKERELVASIDTSTGSTYYADSVKGRFTISRDNAKNTVYLQMNSLKPEDTAVYYCNADVGYYFTFEYWGQGTQVTVSS", "polyreactivity (PSR sort gate)": "high polyreactivity"}
